Values of other authors, collected in article PMC2586657.

Biological target: alpha-factor (Saccharomyces cerevisiae) (UniProt P01149)

Kd: 5 nM
Substance: alpha-factor receptor (from UniProt D6VTK4)
